Measurements as given in publication PMC7641331, “Ctf18-RFC and DNA Pol ϵ form a stable leading strand polymerase/clamp loader complex required for normal and perturbed DNA replication” (Nucleic Acids Research, 2019).

Legend:
[1] = molecular target: Pol2 1-528 (Saccharomyces cerevisiae) (UniProt P21951); conditions: cited from earlier work
[2] = molecular target: Pol2CAT, the complete catalytic domain of Pol2 (residues 1–1192), exonuclease-deficient (D290A/E292A) (S. cerevisiae) (UniProt P21951); test: ITC; 170 μM Ctf18-1-8 titrated into 25 μM Pol2CAT in the presence of 50 μM P1P2 DNA; 25°C; 20 mM HEPES pH 7.5, 160 mM NaCl, 1 mM TCEP; 1:1 hetero-association model
[3] = molecular target: T1, Pol2CAT, the complete catalytic domain of Pol2 (residues 1–1192), exonuclease-deficient (D290A/E292A) (S. cerevisiae, UniProt P21951 1-1192, D290A | E292A); test: cryo-EM structure; 2 μM Ctf18-1-8, Pol2CAT and P1P2* DNA in 20 mM HEPES pH 7.5, 160 mM NaCl, 1 mM TCEP; GraFix sucrose gradient with 0.15% glutaraldehyde; only DNA-free classes refined (Class 1 4.2 Å, Class 2 5.8 Å); conditions: both partners purified
T1 construct: Pol2, largest (catalytic) subunit of DNA Pol ϵ, S. cerevisiae, residues 1-1192; An iron-sulfur (4Fe4S) cluster is modelled in the structure; No tag cleavage step is described; also called POL2(1–1192)exo; Pol2 catalytic domain; source: E. coli BL21(DE3)Star, purified (Histrap, Superdex 200, MonoQ); not shown: His tag (from the Histrap column)
T1 sequence (looked up): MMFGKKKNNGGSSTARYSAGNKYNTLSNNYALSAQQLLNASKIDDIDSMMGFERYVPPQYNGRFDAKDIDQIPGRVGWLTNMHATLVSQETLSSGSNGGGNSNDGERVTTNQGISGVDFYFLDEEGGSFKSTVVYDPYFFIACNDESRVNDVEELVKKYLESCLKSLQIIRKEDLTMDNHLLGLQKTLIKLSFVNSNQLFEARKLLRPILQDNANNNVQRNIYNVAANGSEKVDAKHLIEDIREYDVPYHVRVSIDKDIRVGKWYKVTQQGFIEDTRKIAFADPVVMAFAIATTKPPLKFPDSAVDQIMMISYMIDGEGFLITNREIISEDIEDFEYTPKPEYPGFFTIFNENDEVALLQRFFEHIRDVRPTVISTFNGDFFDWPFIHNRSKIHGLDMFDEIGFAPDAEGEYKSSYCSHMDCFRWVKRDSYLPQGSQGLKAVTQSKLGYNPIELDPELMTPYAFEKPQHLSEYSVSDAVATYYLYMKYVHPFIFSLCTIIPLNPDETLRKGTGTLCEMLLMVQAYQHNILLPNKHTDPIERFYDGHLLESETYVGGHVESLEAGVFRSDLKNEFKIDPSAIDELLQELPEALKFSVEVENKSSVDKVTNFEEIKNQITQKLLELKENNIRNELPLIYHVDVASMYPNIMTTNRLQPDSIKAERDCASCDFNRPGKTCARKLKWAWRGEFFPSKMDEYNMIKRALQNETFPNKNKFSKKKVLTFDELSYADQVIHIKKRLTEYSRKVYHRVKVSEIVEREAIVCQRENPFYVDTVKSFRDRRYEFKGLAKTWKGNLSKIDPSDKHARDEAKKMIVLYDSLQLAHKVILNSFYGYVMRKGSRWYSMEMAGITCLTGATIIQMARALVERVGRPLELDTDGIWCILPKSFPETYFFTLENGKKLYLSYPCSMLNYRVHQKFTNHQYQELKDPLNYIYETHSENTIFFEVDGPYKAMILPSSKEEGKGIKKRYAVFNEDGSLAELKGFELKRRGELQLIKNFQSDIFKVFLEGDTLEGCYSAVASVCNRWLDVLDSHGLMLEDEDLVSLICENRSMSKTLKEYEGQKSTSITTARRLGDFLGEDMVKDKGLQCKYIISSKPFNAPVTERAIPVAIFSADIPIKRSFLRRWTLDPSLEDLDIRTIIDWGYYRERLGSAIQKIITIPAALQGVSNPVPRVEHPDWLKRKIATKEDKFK

[4] = molecular target: T2, Pol2CAT (exonuclease-deficient DNA Pol epsilon catalytic domain) (UniProt P21951 1-1192, D290A;E292A); test: EMSA; 50 nM DNA, no dNTP; EMSA: 25 mM HEPES pH 7.5, 60 mM KCl, 10% glycerol, 1 mM TCEP, 50 nM P1P2*, 20 min on ice, 6% Tris-glycine gel at 4 C; conditions: protein: recombinant; tags: N-terminal His (pETM14); label: 5' Cy3 on P1; 5' overhang 5 nt on P2 (template); 11 bp duplex
T2 sequence: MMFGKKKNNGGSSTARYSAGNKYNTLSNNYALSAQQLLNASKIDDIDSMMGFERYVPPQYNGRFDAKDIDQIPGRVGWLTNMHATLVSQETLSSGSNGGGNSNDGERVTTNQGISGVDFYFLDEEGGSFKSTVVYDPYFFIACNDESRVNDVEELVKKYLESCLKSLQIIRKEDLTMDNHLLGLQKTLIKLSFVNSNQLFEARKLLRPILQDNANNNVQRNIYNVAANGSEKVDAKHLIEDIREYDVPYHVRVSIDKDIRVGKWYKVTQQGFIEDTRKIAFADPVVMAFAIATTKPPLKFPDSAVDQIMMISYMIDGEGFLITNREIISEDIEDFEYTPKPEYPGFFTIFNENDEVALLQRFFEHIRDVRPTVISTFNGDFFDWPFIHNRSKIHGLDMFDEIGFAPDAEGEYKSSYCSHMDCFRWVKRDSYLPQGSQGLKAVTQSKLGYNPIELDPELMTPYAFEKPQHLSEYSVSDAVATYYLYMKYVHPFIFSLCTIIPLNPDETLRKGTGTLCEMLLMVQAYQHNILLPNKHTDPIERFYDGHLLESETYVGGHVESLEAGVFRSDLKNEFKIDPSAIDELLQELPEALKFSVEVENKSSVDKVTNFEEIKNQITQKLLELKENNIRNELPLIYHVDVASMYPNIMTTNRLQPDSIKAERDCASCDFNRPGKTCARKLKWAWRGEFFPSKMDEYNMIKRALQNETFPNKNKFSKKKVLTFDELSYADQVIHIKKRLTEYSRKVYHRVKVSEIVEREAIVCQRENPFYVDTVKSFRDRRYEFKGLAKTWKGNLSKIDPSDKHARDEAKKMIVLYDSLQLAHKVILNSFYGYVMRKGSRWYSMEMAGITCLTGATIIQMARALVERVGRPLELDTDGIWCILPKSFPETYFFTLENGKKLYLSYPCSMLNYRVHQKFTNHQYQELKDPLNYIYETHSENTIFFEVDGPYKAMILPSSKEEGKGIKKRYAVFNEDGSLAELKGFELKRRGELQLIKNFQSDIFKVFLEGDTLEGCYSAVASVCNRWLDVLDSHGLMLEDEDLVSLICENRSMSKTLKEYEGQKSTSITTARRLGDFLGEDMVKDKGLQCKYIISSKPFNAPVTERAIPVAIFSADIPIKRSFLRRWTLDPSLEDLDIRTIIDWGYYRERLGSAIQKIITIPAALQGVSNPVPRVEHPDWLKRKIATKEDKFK

[5] = molecular target: Pol2CAT (exonuclease-deficient DNA Pol epsilon catalytic domain);Ctf18-1-8 wild type (Ctf18 C-terminal … (Saccharomyces cerevisiae?;Saccharomyces …, UniProt P21951;P49956;P25559;P38877 1-1192;666-741;1-380;1-133, D290A;E292A|)); test: EMSA supershift; 50 nM DNA; supershift saturated at 125 nM Ctf18-1-8 (lowest tested); DNA binding identical to Pol2CAT alone; EMSA: 25 mM HEPES pH 7.5, 60 mM KCl, 10% glycerol, 1 mM TCEP, 50 nM P1P2*, 20 min on ice, 6% Tris-glycine gel at 4 C; conditions: protein: recombinant;recombinant; tags: N-terminal His (pETM14); copies: 1;1;1;1; label: 5' Cy3 on P1; 5' overhang 5 nt on P2 (template); 11 bp duplex
Sequence of Pol2CAT (exonuclease-deficient DNA Pol epsilon catalytic domain);Ctf18-1-8 wild type (Ctf18 C-terminal … (P49956 666-741, chain 2 of 2): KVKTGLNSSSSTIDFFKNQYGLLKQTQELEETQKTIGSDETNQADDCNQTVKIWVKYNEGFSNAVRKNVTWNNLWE
Sequence of Pol2CAT (exonuclease-deficient DNA Pol epsilon catalytic domain);Ctf18-1-8 wild type (Ctf18 C-terminal … (P38877 whole entry, chain 4 of 2, the tested form may be a part): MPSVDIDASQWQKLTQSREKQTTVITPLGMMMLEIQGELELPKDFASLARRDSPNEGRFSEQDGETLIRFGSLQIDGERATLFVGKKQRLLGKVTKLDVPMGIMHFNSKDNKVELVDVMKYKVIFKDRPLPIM

Ctf18-1-8 (from UniProt P49956)
Kd [1]: 1300 nM

Ctf18-1-8 module (C-terminus of Ctf18 with Dcc1 and Ctf8), wild type (from UniProt P49956 1-741; P25559 1-380; P38877 1-133) (complex)
Kd [2]: 40 nM

B1: Dcc1 (chain of the recombinant Ctf18-1-8 module) (natural protein, S. cerevisiae)
chain: MSINLHSAPEYDPSYKLIQLTPELLDIIQDPVQNHQLRFKSLDKDKSEVVLCSHDKTWVLKQRKHSNTVLLMREFVPEQPITFDETLLFGLSKPYMDVVGFAKTESEFETRETHGELNLNSVPIYNGELDFSDKIMKRSSTKVIGTLEELLENSPCSALEGISKWHKIGGSVKDGVLCILSQDFLFKALHVLLMSAMAESLDLQHLNVEDTHHAVGKDIEDEFNPYTREIIETVLNKFAVQEQEAENNTWRLRIPFIAQWYGIQALRKYVSGISMPIDEFLIKWKSLFPPFFPCDIDIDMLRGYHFKPTDKTVQYIAKSTLPMDPKERFKVLFRLQSQWDLEDIKPLIEELNSRGMKIDSFIMKYARRKRLGKKTVVTSR
notes: Dcc1, S. cerevisiae; The Dcc1 chain of m2, written alone for the pairs that touch in the structures; also called Dcc1WH3 (its last winged helix domain)
binding result [3]: binds

B2: P1P2* primer-template (dsDNA)
DNA 1: TAACCGCGTTC
DNA 2: CTCTTGAACGCGGTTA
binding result [4]: binds | binding result [5]: binds
